This note sets out measurements from patent publication US20110165078A1 (UNIVERSITY COURT OF THE UNIVERSITY OF ABERDEEN, published 2011).

Experiment [1] deals with T1, rat synaptophysin (in rat hepatic stellate cells) (rat, UniProt P07825 1-307).
T1 construct: In rat HSC extracts on a Western blot; also called synaptophysin in rat HSCs; rHSCs
The experiment can be described thus: Western blot of cell extracts (5 µg/lane) probed with C1-3 scAb.

For experiment [2], the target named is T2, target peptide-BSA conjugate (…-BSA) (human; bovine, UniProt P02769 25-607, chemically conjugated to bovine serum albumin (BSA) using 3 maleimidoacetic acid N-hydroxysuccinimide (MBS)).
T2 construct: Typically on average ~4 peptide molecules per molecule of albumin; also called BSA-target peptide; BSA-peptide 2
As to the kind of experiment: ELISA on coated peptide-BSA or BSA, detection with HRP anti-human Cκ.

T1 sequence (P07825 whole entry): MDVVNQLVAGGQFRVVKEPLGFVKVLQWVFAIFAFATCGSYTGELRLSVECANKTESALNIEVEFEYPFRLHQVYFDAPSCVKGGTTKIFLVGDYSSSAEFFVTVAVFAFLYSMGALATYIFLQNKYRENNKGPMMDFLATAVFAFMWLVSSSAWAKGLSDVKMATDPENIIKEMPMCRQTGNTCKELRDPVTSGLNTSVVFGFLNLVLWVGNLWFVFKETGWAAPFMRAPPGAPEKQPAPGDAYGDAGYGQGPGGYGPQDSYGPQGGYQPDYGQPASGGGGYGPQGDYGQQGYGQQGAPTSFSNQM
T2 sequence (P02769 25-607 limits assumed): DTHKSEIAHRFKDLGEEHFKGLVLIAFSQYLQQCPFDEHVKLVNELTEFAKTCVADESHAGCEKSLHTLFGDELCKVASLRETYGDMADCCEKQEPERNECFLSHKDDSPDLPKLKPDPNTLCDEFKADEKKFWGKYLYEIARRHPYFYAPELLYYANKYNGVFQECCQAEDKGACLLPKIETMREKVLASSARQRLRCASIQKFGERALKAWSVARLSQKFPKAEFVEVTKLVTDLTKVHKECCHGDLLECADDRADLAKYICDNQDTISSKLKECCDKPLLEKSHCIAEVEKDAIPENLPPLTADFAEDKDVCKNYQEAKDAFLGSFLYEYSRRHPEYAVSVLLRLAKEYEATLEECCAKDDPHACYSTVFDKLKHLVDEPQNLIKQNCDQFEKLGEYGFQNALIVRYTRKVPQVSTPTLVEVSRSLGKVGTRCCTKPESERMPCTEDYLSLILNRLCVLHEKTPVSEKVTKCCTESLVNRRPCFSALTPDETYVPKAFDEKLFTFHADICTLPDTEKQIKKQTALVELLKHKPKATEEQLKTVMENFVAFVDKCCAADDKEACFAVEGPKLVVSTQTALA

B1: C1-3 scAb (scFv)
scFv: MAEVQLLESGGGLVQPGGSLRLSCAASGFTFSSYAMSWVRQAPGKGLEWVSTIAASGPSTGYADSVKGRFTISRDNSKNTLYLQMNSLRAEDTAVYYCAKTTAKFDYWGQGTLVTVSSGGGGSGGGGSGGGGSTDIQMTQSPSSLSASVGDRVTITCRASQSISSYLNWYQQKPGKAPKLLIYSASRLQSGVPSRFNGSGSGTDFTLTISSLQPEDFATYYCQQLQRKPTTFGQGTKVEIKRGAAAPSVFIFPPSDEQLKSGTASVVCLLNNFYPREAKVQWKVDNALQSGNSQESVTEQDSKDSTYSLSSTLTLSKADYEKHKVYACEVTHQGLSSPVTKSFNRGESHHHHHH
notes: Single-chain antibody fragment: scFv fused to human C kappa and a hexa-histidine tag, expressed from pIMS147 in E. coli XL-1 blue; also called C1-3 scFv; clone pIMS147 C1-3
As to B1, the binding result in experiment [1] is on record as “no binding”. The “fold more scAb bound to peptide-BSA than to BSA alone” value in experiment [2] is roughly 8 times.
